Experimental findings from patent US20120070446A1 (AstraZeneca / MedImmune, published 2012) are described below.

For assay [1], the target named is F protein of RSV A2 virus (on virus particles, neutralization assay) (Respiratory Syncytial Virus A2, UniProt P03420 26-574). As to the kind of experiment: cell-based or functional assay.
Assay [2] has as its target T1, HIS-tagged recombinant F protein from RSV Long strain (Respiratory Syncytial Virus Long strain, UniProt P12568 26-524).
T1 construct: also called recombinant HIS tagged F protein; recombinant RSV F Long strain containing a poly HIS tag; not shown: poly HIS tag
Description: direct ELISA, HIS-tagged F on Ni-NTA HisSorp plates. In general terms: In an ELISA, binding on a coated surface is turned into a signal by an enzyme label.

T1 sequence (P12568 26-524): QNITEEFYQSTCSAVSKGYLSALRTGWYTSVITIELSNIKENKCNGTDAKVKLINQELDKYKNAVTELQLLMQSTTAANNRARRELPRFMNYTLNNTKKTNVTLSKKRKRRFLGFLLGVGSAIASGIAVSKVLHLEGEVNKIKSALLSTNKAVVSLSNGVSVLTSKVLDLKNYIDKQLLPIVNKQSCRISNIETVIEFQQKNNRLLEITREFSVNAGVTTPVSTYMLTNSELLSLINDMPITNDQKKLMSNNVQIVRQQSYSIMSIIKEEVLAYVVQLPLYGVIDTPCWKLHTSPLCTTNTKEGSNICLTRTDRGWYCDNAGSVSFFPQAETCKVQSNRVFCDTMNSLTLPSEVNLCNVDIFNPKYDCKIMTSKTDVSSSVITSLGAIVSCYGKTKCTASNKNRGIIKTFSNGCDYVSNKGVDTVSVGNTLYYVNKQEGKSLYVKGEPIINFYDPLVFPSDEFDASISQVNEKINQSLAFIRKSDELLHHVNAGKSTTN

B1: palivizumab (antibody, V domains shown)
VH: QVTLRESGPALVKPTQTLTLTCTFSGFSLSTSGMSVGWIRQPPGKALEWLADIWWDDKKDYNPSLKSRLTISKDTSKNQVVLKVTNMDPADTATYYCARSMITNWYFDVWGAGTTVTVSS
VL: DIQMTQSPSTLSASVGDRVTITCKCQLSVGYMHWYQQKPGKAPKLLIYDTSKLASGVPSRFSGSGSGTEFTLTISSLQPDDFATYYCFQGSGYPFTFGGGTKLEIK
As to B1, the “IC50 (ng/ml), RSV neutralizing activity, TCID50 culture assay on HEp2 cells with the RSV A2 virus” value in assay [1] turned out to be 152 ng/mL.

B2: AM22 (recombinant AM22 mAb, human IgG1/Kappa) (antibody, V domains shown)
VH: QVQLVQSGAEVKKPGATVKVSCKISGHTLIKLSIHWVRQAPGKGLEWMGGYEGEVDEIFYAQKFQHRLTVIADTATDTVYMELGRLTSDDTAVYFCGTLGVTVTEAGLGIDDYWGQGTLVTVSS
VL: EIVLTQSPGTLSLSPGERATLSCRASQIVSRNHLAWYQQKPGQAPRLLIFGASSRATGIPVRFSGSGSGTDFTLTINGLAPEDFAVYYCLSSDSSIFTFGPGTKVDFK
notes: also called AM22 antibody; AM22 monoclonal antibody
Take B2: the binding result in assay [2] was “no binding”.
